Paper PMC4117581, “Strain-Specific Variation of the Decorin-Binding Adhesin DbpA Influences the Tissue Tropism of the Lyme Disease Spirochete” (PLoS Pathogens, 2014)

Experiments:
[1] = target: Recombinant human decorin (human) (UniProt P07585); assay: SPR; Biacore 3000; 10 µg biotinylated decorin on an SA chip; 0-500 nM DbpA injected at 10 µL/min, 25°C; control flow cell with PBS; 1:1 Langmuir model
[2] = target: Recombinant human decorin (human) (UniProt P07585); assay: ELISA; quantitative ELISA; 1 µg decorin coated on microtiter wells; 0.03125-2 µM histidine-tagged DbpA added; detected with mouse anti-histidine tag and HRP anti-mouse IgG; KD from a fit of the curve
[3] = target: T1, Recombinant human decorin (human, UniProt P07585 31-359, biotin (biotinylated decorin on the SA chip in the SPR experiment; sites not stated)); assay: as above; conditions: both partners purified
T1 construct: Decorin, human, recombinant; Decorin is a proteoglycan that carries dermatan sulfate; Secreted from CHO cells, so probably the mature protein (surmise); source: stably transfected Chinese hamster ovary cells (ATCC CCL 61), purified; gift from MedImmune

[4] = target: T1, Recombinant human decorin; assay: SPR; Biacore 3000; 10 µg biotinylated decorin on an SA chip; 0-500 nM DbpA injected at 10 µL/min, 25°C; control flow cell with PBS; 1:1 Langmuir model; conditions: both partners purified

Recombinant human decorin (human), sequence (P07585 31-359): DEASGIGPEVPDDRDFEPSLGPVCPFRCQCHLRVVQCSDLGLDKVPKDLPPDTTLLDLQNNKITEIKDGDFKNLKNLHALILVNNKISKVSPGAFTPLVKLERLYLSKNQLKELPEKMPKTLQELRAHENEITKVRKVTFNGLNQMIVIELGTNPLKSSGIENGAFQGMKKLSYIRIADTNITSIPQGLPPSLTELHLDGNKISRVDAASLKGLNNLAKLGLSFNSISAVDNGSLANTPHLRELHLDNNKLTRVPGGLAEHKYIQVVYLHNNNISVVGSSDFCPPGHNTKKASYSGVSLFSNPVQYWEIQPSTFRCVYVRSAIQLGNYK
T1 sequence (P07585 31-359): as above

Row | Molecule | Kd [1] | koff [1] | kon [1] | Kd [2] | Kd [3] | Kd [4] | koff [4] | kon [4]
1 | DbpA297, recombinant histidine-tagged DbpA of B. burgdorferi strain 297 (from UniProt O50917 30-187) (natural protein) | 300 nM | 0.1 s⁻¹ | 351000 M⁻¹ s⁻¹ | 140 nM | – | – | – | –
2 | DbpAPBr, recombinant histidine-tagged DbpA of B. garinii strain PBr (natural protein) | 90 nM | 0.13 s⁻¹ | 1.83e+06 M⁻¹ s⁻¹ | 60 nM | – | – | – | –
3 | DbpA_(B356), recombinant histidine-tagged DbpA of B. burgdorferi strain B356 (natural protein) | 840 nM | 0.06 s⁻¹ | 66000 M⁻¹ s⁻¹ | 950 nM | – | – | – | –
4 | DbpA_(N40-D10/E9), recombinant histidine-tagged DbpA of B. burgdorferi strain N40-D10/E9 (from UniProt O50917 30-191) (natural protein) | 710 nM | 0.07 s⁻¹ | 97000 M⁻¹ s⁻¹ | 850 nM | – | – | – | –
5 | DbpA_(VS461), recombinant histidine-tagged DbpA of B. afzelii strain VS461 (natural protein) | 260 nM | 0.04 s⁻¹ | 152000 M⁻¹ s⁻¹ | 290 nM | – | – | – | –
6 | DbpAB31, recombinant histidine-tagged DbpA of B. burgdorferi strain B31 (natural protein) ATKIRLERSAKDITDEIDAIKKDAALKGVNFDAFKDKKTGSGVSENPFILEAKVRATTVAEKFVIAIEEEATKLKETGSSGEFSAMYDLMFEVSKPLQKLGIQEMTKTVSDAAEENPPTTAQGVLEIAKKMREKLQRVHTKNYCTLKKKENSTFTDEKCKNN | – | – | – | – | 210 nM | 280 nM | 0.11 s⁻¹ | 417000 M⁻¹ s⁻¹
